Square brackets hold non-standard residues; d marks the D form. Aib = CC(C)(N)C(=O)O
T1: human GLP-2 receptor (hGLP2-R) (human, UniProt O95838 1-553)
T1 sequence (looked up): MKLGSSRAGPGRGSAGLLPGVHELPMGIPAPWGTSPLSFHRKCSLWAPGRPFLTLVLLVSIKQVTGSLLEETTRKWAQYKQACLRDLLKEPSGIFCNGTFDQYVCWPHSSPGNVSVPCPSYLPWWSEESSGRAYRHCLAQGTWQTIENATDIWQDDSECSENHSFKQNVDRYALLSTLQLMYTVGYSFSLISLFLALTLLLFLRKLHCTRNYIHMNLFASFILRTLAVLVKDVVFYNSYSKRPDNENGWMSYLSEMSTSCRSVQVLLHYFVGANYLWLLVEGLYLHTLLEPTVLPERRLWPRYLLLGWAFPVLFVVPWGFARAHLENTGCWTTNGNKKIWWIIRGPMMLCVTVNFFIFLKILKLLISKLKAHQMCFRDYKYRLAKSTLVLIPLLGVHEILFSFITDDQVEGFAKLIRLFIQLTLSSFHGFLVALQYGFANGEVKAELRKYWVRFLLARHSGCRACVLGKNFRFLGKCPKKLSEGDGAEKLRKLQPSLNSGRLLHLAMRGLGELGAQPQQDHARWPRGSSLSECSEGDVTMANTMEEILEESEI


Legend:
[1] = biological target: human glucagon-like peptide 1 receptor (GLP-1R) (human, UniProt P43220 24-463); assay: cell-based or functional assay
[2] = biological target: T1, human GLP-2 receptor (hGLP2-R); assay: cell-based or functional assay

| Binder | EC50 GLP-1 (nM); cAMP AlphaScreen, HEK293 cells expressing human GLP-1R [1] | EC50 GLP-2 (nM); cAMP AlphaScreen, HEK293 cells expressing human GLP-2R [2] |
| --- | --- | --- |
| H-H[Aib]EGTFTSELSTILDEQAARDFIAWLIAHKITD-OH (SMILES CC[C@H](C)[C@H](NC(=O)[C@H](CC(C)C)NC(=O)[C@H](Cc1c[nH]c2ccccc12)NC(=O)[C@H](C)NC(=O)[C@@H](NC(=O)[C@H](Cc1ccccc1)NC(=O)[C@H](CC(=O)O)NC(=O)[C@H](CCCNC(=N)N)NC(=O)[C@H](C)NC(=O)[C@H](C)NC(=O)[C@H](CCC(N)=O)NC(=O)[C@H](CCC(=O)O)NC(=O)[C@H](CC(=O)O)NC(=O)[C@H](CC(C)C)NC(=O)[C@@H](NC(=O)[C@@H](NC(=O)[C@H](CO)NC(=O)[C@H](CC(C)C)NC(=O)[C@H](CCC(=O)O)NC(=O)[C@H](CO)NC(=O)[C@@H](NC(=O)[C@H](Cc1ccccc1)NC(=O)[C@@H](NC(=O)CNC(=O)[C@H](CCC(=O)O)NC(=O)C(C)(C)NC(=O)[C@@H](N)Cc1c[nH]cn1)[C@@H](C)O)[C@@H](C)O)[C@@H](C)O)[C@@H](C)CC)[C@@H](C)CC)C(=O)N[C@@H](C)C(=O)N[C@@H](Cc1c[nH]cn1)C(=O)N[C@@H](CCCCN)C(=O)N[C@H](C(=O)N[C@H](C(=O)N[C@@H](CC(=O)O)C(=O)O)[C@@H](C)O)[C@@H](C)CC) [Compound 10] | 0.005 nM | 0.05 nM |
| H-H[Aib]EGTFTSELATILDEQAARDFIAWLYAHKITD-OH (SMILES CC[C@H](C)[C@H](NC(=O)[C@H](Cc1ccccc1)NC(=O)[C@H](CC(=O)O)NC(=O)[C@H](CCCNC(=N)N)NC(=O)[C@H](C)NC(=O)[C@H](C)NC(=O)[C@H](CCC(N)=O)NC(=O)[C@H](CCC(=O)O)NC(=O)[C@H](CC(=O)O)NC(=O)[C@H](CC(C)C)NC(=O)[C@@H](NC(=O)[C@@H](NC(=O)[C@H](C)NC(=O)[C@H](CC(C)C)NC(=O)[C@H](CCC(=O)O)NC(=O)[C@H](CO)NC(=O)[C@@H](NC(=O)[C@H](Cc1ccccc1)NC(=O)[C@@H](NC(=O)CNC(=O)[C@H](CCC(=O)O)NC(=O)C(C)(C)NC(=O)[C@@H](N)Cc1c[nH]cn1)[C@@H](C)O)[C@@H](C)O)[C@@H](C)O)[C@@H](C)CC)C(=O)N[C@@H](C)C(=O)N[C@@H](Cc1c[nH]c2ccccc12)C(=O)N[C@@H](CC(C)C)C(=O)N[C@@H](Cc1ccc(O)cc1)C(=O)N[C@@H](C)C(=O)N[C@@H](Cc1c[nH]cn1)C(=O)N[C@@H](CCCCN)C(=O)N[C@H](C(=O)N[C@H](C(=O)N[C@@H](CC(=O)O)C(=O)O)[C@@H](C)O)[C@@H](C)CC) [Compound 14] | 0.021 nM | 0.049 nM |
| H-H[Aib]EGTFTSELATILDEQAARDFIAWLHAHKITD-OH (SMILES CC[C@H](C)[C@H](NC(=O)[C@H](Cc1ccccc1)NC(=O)[C@H](CC(=O)O)NC(=O)[C@H](CCCNC(=N)N)NC(=O)[C@H](C)NC(=O)[C@H](C)NC(=O)[C@H](CCC(N)=O)NC(=O)[C@H](CCC(=O)O)NC(=O)[C@H](CC(=O)O)NC(=O)[C@H](CC(C)C)NC(=O)[C@@H](NC(=O)[C@@H](NC(=O)[C@H](C)NC(=O)[C@H](CC(C)C)NC(=O)[C@H](CCC(=O)O)NC(=O)[C@H](CO)NC(=O)[C@@H](NC(=O)[C@H](Cc1ccccc1)NC(=O)[C@@H](NC(=O)CNC(=O)[C@H](CCC(=O)O)NC(=O)C(C)(C)NC(=O)[C@@H](N)Cc1c[nH]cn1)[C@@H](C)O)[C@@H](C)O)[C@@H](C)O)[C@@H](C)CC)C(=O)N[C@@H](C)C(=O)N[C@@H](Cc1c[nH]c2ccccc12)C(=O)N[C@@H](CC(C)C)C(=O)N[C@@H](Cc1c[nH]cn1)C(=O)N[C@@H](C)C(=O)N[C@@H](Cc1c[nH]cn1)C(=O)N[C@@H](CCCCN)C(=O)N[C@H](C(=O)N[C@H](C(=O)N[C@@H](CC(=O)O)C(=O)O)[C@@H](C)O)[C@@H](C)CC) [Compound 12] | 0.055 nM | 0.076 nM |
| H-H[Aib]EGTFTSELATILDEQAARDFIAWLQAHKITD-OH (SMILES CC[C@H](C)[C@H](NC(=O)[C@H](Cc1ccccc1)NC(=O)[C@H](CC(=O)O)NC(=O)[C@H](CCCNC(=N)N)NC(=O)[C@H](C)NC(=O)[C@H](C)NC(=O)[C@H](CCC(N)=O)NC(=O)[C@H](CCC(=O)O)NC(=O)[C@H](CC(=O)O)NC(=O)[C@H](CC(C)C)NC(=O)[C@@H](NC(=O)[C@@H](NC(=O)[C@H](C)NC(=O)[C@H](CC(C)C)NC(=O)[C@H](CCC(=O)O)NC(=O)[C@H](CO)NC(=O)[C@@H](NC(=O)[C@H](Cc1ccccc1)NC(=O)[C@@H](NC(=O)CNC(=O)[C@H](CCC(=O)O)NC(=O)C(C)(C)NC(=O)[C@@H](N)Cc1c[nH]cn1)[C@@H](C)O)[C@@H](C)O)[C@@H](C)O)[C@@H](C)CC)C(=O)N[C@@H](C)C(=O)N[C@@H](Cc1c[nH]c2ccccc12)C(=O)N[C@@H](CC(C)C)C(=O)N[C@@H](CCC(N)=O)C(=O)N[C@@H](C)C(=O)N[C@@H](Cc1c[nH]cn1)C(=O)N[C@@H](CCCCN)C(=O)N[C@H](C(=O)N[C@H](C(=O)N[C@@H](CC(=O)O)C(=O)O)[C@@H](C)O)[C@@H](C)CC) [Compound 13] | 0.016 nM | 0.083 nM |
| H-H[Aib]EGTFTSELATILDGKAARDFIAWLIAHKITD-OH (SMILES CC[C@H](C)[C@H](NC(=O)[C@H](CC(C)C)NC(=O)[C@H](Cc1c[nH]c2ccccc12)NC(=O)[C@H](C)NC(=O)[C@@H](NC(=O)[C@H](Cc1ccccc1)NC(=O)[C@H](CC(=O)O)NC(=O)[C@H](CCCNC(=N)N)NC(=O)[C@H](C)NC(=O)[C@H](C)NC(=O)[C@H](CCCCN)NC(=O)CNC(=O)[C@H](CC(=O)O)NC(=O)[C@H](CC(C)C)NC(=O)[C@@H](NC(=O)[C@@H](NC(=O)[C@H](C)NC(=O)[C@H](CC(C)C)NC(=O)[C@H](CCC(=O)O)NC(=O)[C@H](CO)NC(=O)[C@@H](NC(=O)[C@H](Cc1ccccc1)NC(=O)[C@@H](NC(=O)CNC(=O)[C@H](CCC(=O)O)NC(=O)C(C)(C)NC(=O)[C@@H](N)Cc1c[nH]cn1)[C@@H](C)O)[C@@H](C)O)[C@@H](C)O)[C@@H](C)CC)[C@@H](C)CC)C(=O)N[C@@H](C)C(=O)N[C@@H](Cc1c[nH]cn1)C(=O)N[C@@H](CCCCN)C(=O)N[C@H](C(=O)N[C@H](C(=O)N[C@@H](CC(=O)O)C(=O)O)[C@@H](C)O)[C@@H](C)CC) [Compound 11] | 0.011 nM | 0.085 nM |

Further lines, results first:

| EC50 GLP-1 (nM); cAMP AlphaScreen, HEK293 cells expressing human GLP-1R [1] | EC50 GLP-2 (nM); cAMP AlphaScreen, HEK293 cells expressing human GLP-2R [2] | Binder |
| --- | --- | --- |
| 0.005 nM | 0.038 nM | H-H[Aib]EGTFTSELATILDEQAARDFIAWLIQHKITD-OH (SMILES CC[C@H](C)[C@H](NC(=O)[C@H](Cc1ccccc1)NC(=O)[C@H](CC(=O)O)NC(=O)[C@H](CCCNC(=N)N)NC(=O)[C@H](C)NC(=O)[C@H](C)NC(=O)[C@H](CCC(N)=O)NC(=O)[C@H](CCC(=O)O)NC(=O)[C@H](CC(=O)O)NC(=O)[C@H](CC(C)C)NC(=O)[C@@H](NC(=O)[C@@H](NC(=O)[C@H](C)NC(=O)[C@H](CC(C)C)NC(=O)[C@H](CCC(=O)O)NC(=O)[C@H](CO)NC(=O)[C@@H](NC(=O)[C@H](Cc1ccccc1)NC(=O)[C@@H](NC(=O)CNC(=O)[C@H](CCC(=O)O)NC(=O)C(C)(C)NC(=O)[C@@H](N)Cc1c[nH]cn1)[C@@H](C)O)[C@@H](C)O)[C@@H](C)O)[C@@H](C)CC)C(=O)N[C@@H](C)C(=O)N[C@@H](Cc1c[nH]c2ccccc12)C(=O)N[C@@H](CC(C)C)C(=O)N[C@H](C(=O)N[C@@H](CCC(N)=O)C(=O)N[C@@H](Cc1c[nH]cn1)C(=O)N[C@@H](CCCCN)C(=O)N[C@H](C(=O)N[C@H](C(=O)N[C@@H](CC(=O)O)C(=O)O)[C@@H](C)O)[C@@H](C)CC)[C@@H](C)CC) [Compound 15] |
| 0.006 nM | 0.026 nM | H-H[Aib]EGTFTSELATILDEQAARDFIAWLIKHKITD-OH (SMILES CC[C@H](C)[C@H](NC(=O)[C@H](Cc1ccccc1)NC(=O)[C@H](CC(=O)O)NC(=O)[C@H](CCCNC(=N)N)NC(=O)[C@H](C)NC(=O)[C@H](C)NC(=O)[C@H](CCC(N)=O)NC(=O)[C@H](CCC(=O)O)NC(=O)[C@H](CC(=O)O)NC(=O)[C@H](CC(C)C)NC(=O)[C@@H](NC(=O)[C@@H](NC(=O)[C@H](C)NC(=O)[C@H](CC(C)C)NC(=O)[C@H](CCC(=O)O)NC(=O)[C@H](CO)NC(=O)[C@@H](NC(=O)[C@H](Cc1ccccc1)NC(=O)[C@@H](NC(=O)CNC(=O)[C@H](CCC(=O)O)NC(=O)C(C)(C)NC(=O)[C@@H](N)Cc1c[nH]cn1)[C@@H](C)O)[C@@H](C)O)[C@@H](C)O)[C@@H](C)CC)C(=O)N[C@@H](C)C(=O)N[C@@H](Cc1c[nH]c2ccccc12)C(=O)N[C@@H](CC(C)C)C(=O)N[C@H](C(=O)N[C@@H](CCCCN)C(=O)N[C@@H](Cc1c[nH]cn1)C(=O)N[C@@H](CCCCN)C(=O)N[C@H](C(=O)N[C@H](C(=O)N[C@@H](CC(=O)O)C(=O)O)[C@@H](C)O)[C@@H](C)CC)[C@@H](C)CC) [Compound 16] |

Reference: patent publication US20190338009A1 (ZEALAND PHARMA A S, published 2019)
